Measurements as given in paper PMC5365662, “A Short Double-Stapled Peptide Inhibits Respiratory Syncytial Virus Entry and Spreading” (Antimicrobial Agents and Chemotherapy, 2017).
Bridge positions count the residues as written; N and C are the ends. Square brackets hold non-standard residues; d marks the D form. Peptide text beside a SMILES is read from it. R8 = C=CCCCCCC[C@@](C)(N)C(=O)O; R5 = C=CCCC[C@@](C)(N)C(=O)O; S5 = C=CCCC[C@](C)(N)C(=O)O

Assays:
[1] = circular dichroism; conditions: 10 mM phosphate; pH 7.5; 25 °C; 50 uM
[2] = target: 5HB, a recombinant protein containing 3 HR1 domains covalently attached to 2 HR2 domains; conditions: competition with fluorescently labeled T108 probe (2 nM), 5HB 50 nM, 10 min preincubation + 30 min room temperature, duplicates
Excerpt: The RSV HR2 region (residues 476 to 524) is a 49-amino-acid sequence that has been extensively characterized (Fig. 1). HR2 is a largely unstructured peptide in aqueous solution folding into an α-helix upon binding to trimeric HR1 coiled coils ([20]). […] We reduced HR2 (aa 483 to 516) into three short overlapping subdomains (subdomains 1 to 3) (Fig. 1). These peptides were scanned for various stapling combinations. […] Far-UV circular dichroism (CD) spectropolarimetry was used to investigate the effect of stapling on the α-helical content of the peptides. […] To assess the propensity of the stapled peptides to hinder the formation of the postfusion six-helix bundle required for viral cell entry, we used a 5-helix bundle (5HB) biochemical fluorescence polarization (FP) competition assay as previously described ([21], [22]).
The coding sequence of 5HB was designed as described previously and de novo synthesized by Genscript ([21]). The HR1 (aa 126 to 182) and HR2 (aa 476 to 524) coding sequences from wild-type RSV A2 strain F ([36]) were codon optimized for overexpression in Escherichia coli and cloned at NdeI/BamHI restriction sites of pET-15b to generate the expression plasmid for 5HB. The 5HB expression construct was transformed into Escherichia coli BL21(DE3). Cells were grown at 37°C to an optical density at 600 nm of 0.8 followed by induction with isopropyl-1-thio-β-D-galactopyranoside at a final concentration of 0.5 mM for 12 to 15 h. Cells were harvested by centrifugation, washed twice with PBS, and resuspended in 20 ml of PBS (pH 7.4), 500 mM NaCl, and 1% Triton X-100 supplemented with complete protease inhibitor. Cell suspensions were disrupted by sonication. Cell debris was removed through ultracentrifugation at 18,000 × g for 1 h at 4°C, and clarified cell lysate was mixed with 1 ml of nickel-nitrilotriacetic acid (Ni-NTA) agarose beads (Qiagen) preequilibrated with 20 ml of lysis buffer. The suspension was agitated for 1 h at 4°C and loaded onto a 5-ml polypropylene column (Qiagen). The column was washed twice with 8 ml of PBS (pH 7.4), 500 mM NaCl, 1% Triton X-100, and 100 mM imidazole. Proteins were eluted with 5 × 500 μl of a buffer containing PBS (pH 7.4), 300 mM imidazole, and 500 mM NaCl. The imidazole was removed by dialysis, and protein purity was assessed by SDS-polyacrylamide gel electrophoresis followed by Coomassie blue staining. Protein concentration was determined with the Qubit 2.0 Fluorometer (Life Technologies).
The T108 ([12]) peptide probe was synthesized by standard SPPS procedures using HCTU as a coupling reagent as described above. A 10-μl volume of recombinant 5HB protein in FP buffer (20 mM PBS [pH 7.4], 500 mM NaCl, 0.01% [vol/vol] Tween 20, and 0.05 mg/ml bovine gamma globulin) was preincubated for 10 min at room temperature with 10 μl of the appropriate concentration of the inhibitor, after which 10 μl of fluorescein isothiocyanate (FITC)-T106 was added and further incubated for 30 min at room temperature. The final concentrations of protein and probe were 50 nM and 2 nM, respectively. The fluorescence polarization assay was performed in 384-well plates using a Spectramax Paradigm (Molecular Devices), using excitation and emission wavelengths of 485 nm and 535 nm, respectively. The acquisition time was 700 ms, and the read height was 1 mm. All experiments were performed in duplicate. […] In order to ensure robust fitting for some fits, r0 was kept constant at the value measured for the free tracer in buffer.

SMILES | helicity [1] [%] | Kd [2] [µM]
CC[C@H](C)[C@H](NC(=O)[C@H](Cc1ccccc1)NC(=O)[C@H](C)NC(=O)[C@H](CC(C)C)NC(=O)[C@H](CO)NC(=O)[C@H](CCC(N)=O)NC(=O)[C@H](CC(N)=O)NC(=O)[C@@H](NC(=O)[C@]1(C)CCCC=CCCC[C@](C)(NC(=O)[C@H](CO)NC(=O)[C@@H](NC(=O)[C@H](CCC(=O)O)NC(C)=O)[C@@H](C)CC)C(=O)N[C@@H](C(C)C)C(=O)N[C@@H](CC(N)=O)C(=O)N[C@@H](CCC(=O)O)C(=O)N1)[C@@H](C)CC)C(=O)N[C@@H](CCCNC(=N)N)C(N)=O [Peptide 2a] (Ac-EIS[S5]VNE[S5]INQSLAFIR-NH2; staple 4-8) | 5.2 | 405 ± 121
CC[C@H](C)[C@H](NC(=O)[C@H](Cc1ccccc1)NC(=O)[C@]1(C)CCCC=CCCC[C@](C)(NC(=O)[C@@H](NC(=O)[C@H](CCCCN)NC(=O)[C@H](CCC(=O)O)NC(=O)[C@H](CC(N)=O)NC(=O)[C@@H](NC(=O)[C@H](CCC(N)=O)NC(=O)[C@H](CO)NC(=O)[C@@H](NC(=O)[C@H](CCC(=O)O)NC(C)=O)[C@@H](C)CC)C(C)C)[C@@H](C)CC)C(=O)N[C@@H](CCC(N)=O)C(=O)N[C@@H](CO)C(=O)N[C@@H](CC(C)C)C(=O)N1)C(=O)N[C@@H](CCCNC(=N)N)C(N)=O [Peptide 2b] (Ac-EISQVNEKI[S5]QSL[S5]FIR-NH2; staple 10-14) | 35.8 | 369 ± 99
CC[C@H](C)[C@H](NC(=O)[C@H](Cc1ccccc1)NC(=O)[C@H](C)NC(=O)[C@H](CC(C)C)NC(=O)[C@H](CO)NC(=O)[C@]1(C)CCCC=CCCC[C@@](C)(NC(=O)[C@H](CCC(=O)O)NC(=O)[C@H](CC(N)=O)NC(=O)[C@@H](NC(=O)[C@H](CCC(N)=O)NC(=O)[C@H](CO)NC(=O)[C@@H](NC(=O)[C@H](CCC(=O)O)NC(C)=O)[C@@H](C)CC)C(C)C)C(=O)N[C@@H]([C@@H](C)CC)C(=O)N[C@@H](CC(N)=O)C(=O)N1)C(=O)N[C@@H](CCCNC(=N)N)C(N)=O [Peptide 2c] (Ac-EISQVNE[R5]IN[S5]SLAFIR-NH2; staple 8-11) | 13.8 | 125 ± 16
CC[C@H](C)[C@H](NC(=O)[C@H](Cc1ccccc1)NC(=O)[C@]1(C)CCCC=CCCCCCC[C@@](C)(NC(=O)[C@H](CC(N)=O)NC(=O)[C@@H](NC(=O)[C@H](CCC(N)=O)NC(=O)[C@H](CO)NC(=O)[C@@H](NC(=O)[C@H](CCC(=O)O)NC(C)=O)[C@@H](C)CC)C(C)C)C(=O)N[C@@H](CCCCN)C(=O)N[C@@H]([C@@H](C)CC)C(=O)N[C@@H](CC(N)=O)C(=O)N[C@@H](CCC(N)=O)C(=O)N[C@@H](CO)C(=O)N[C@@H](CC(C)C)C(=O)N1)C(=O)N[C@@H](CCCNC(=N)N)C(N)=O [Peptide 2e] (Ac-EISQVN[R8]KINQSL[S5]FIR-NH2; staple 7-14) | 27.4 | 76 ± 4
CC[C@H](C)[C@H](NC(=O)[C@H](CCC(=O)O)NC(C)=O)C(=O)N[C@@H](CO)C(=O)N[C@@H](CCC(N)=O)C(=O)N[C@H](C(=O)N[C@@H](CC(N)=O)C(=O)N[C@@H](CCC(=O)O)C(=O)N[C@@H](CCCCN)C(=O)N[C@H](C(=O)N[C@]1(C)CCCCCCC=CCCC[C@@](C)(C(N)=O)NC(=O)[C@H]([C@@H](C)CC)NC(=O)[C@H](Cc2ccccc2)NC(=O)[C@H](C)NC(=O)[C@H](CC(C)C)NC(=O)[C@H](CO)NC(=O)[C@H](CCC(N)=O)NC1=O)[C@@H](C)CC)C(C)C [Peptide 2f] (Ac-EISQVNEKI[R8]QSLAFI[S5]-NH2; staple 10-17) | 15.7 | 363 ± 238
CC[C@H](C)[C@H](NC(=O)[C@H](Cc1ccccc1)NC(=O)[C@H](C)NC(=O)[C@H](CC(C)C)NC(=O)[C@H](CO)NC(=O)[C@H](CCC(N)=O)NC(=O)[C@H](CCC(=O)O)NC(C)=O)C(=O)N[C@@H](CCCNC(=N)N)C(=O)N[C@@H](CCCCN)C(=O)N[C@@H](CO)C(=O)N[C@@H](CC(=O)O)C(=O)N[C@@H](CCC(=O)O)C(=O)N[C@@H](CC(C)C)C(=O)N[C@@H](CC(C)C)C(=O)N[C@@H](Cc1c[nH]cn1)C(=O)N[C@@H](CC(N)=O)C(=O)N[C@H](C(N)=O)C(C)C [Peptide 3] (Ac-EQSLAFIRKSDELLHNV-NH2) | 5.9 | > 10.8
CC[C@H](C)[C@H](NC(=O)[C@H](Cc1ccccc1)NC(=O)[C@H](C)NC(=O)[C@H](CC(C)C)NC(=O)[C@H](CO)NC(=O)[C@H](CCC(N)=O)NC(=O)[C@H](CCC(=O)O)NC(C)=O)C(=O)N[C@@]1(C)CCCC=CCCC[C@@](C)(C(=O)N[C@@H](CC(C)C)C(=O)N[C@@H](CC(C)C)C(=O)N[C@@H](Cc2c[nH]cn2)C(=O)N[C@@H](CC(N)=O)C(=O)N[C@H](C(N)=O)C(C)C)NC(=O)[C@H](CC(=O)O)NC(=O)[C@H](CO)NC(=O)[C@H](CCCCN)NC1=O [Peptide 3b] (Ac-EQSLAFI[S5]KSD[S5]LLHNV-NH2; staple 8-12) | 23 | 55.9 ± 4
CC[C@H](C)[C@H](NC(=O)[C@H](Cc1ccccc1)NC(=O)[C@H](C)NC(=O)[C@H](CC(C)C)NC(=O)[C@H](CO)NC(=O)[C@H](CCC(N)=O)NC(=O)[C@H](CCC(=O)O)NC(C)=O)C(=O)N[C@@H](CCCNC(=N)N)C(=O)N[C@@H](CCCCN)C(=O)N[C@@H](CO)C(=O)N[C@@H](CC(=O)O)C(=O)N[C@@]1(C)CCCC=CCCC[C@@](C)(C(=O)N[C@H](C(N)=O)C(C)C)NC(=O)[C@H](Cc2c[nH]cn2)NC(=O)[C@H](CC(C)C)NC(=O)[C@H](CC(C)C)NC1=O [Peptide 3c] (Ac-EQSLAFIRKSD[S5]LLH[S5]V-NH2; staple 12-16) | 18.7 | > 216
CC[C@H](C)[C@@H]1NC(=O)[C@H](Cc2ccccc2)NC(=O)[C@](C)(NC(=O)[C@H](CC(C)C)NC(=O)[C@H](CO)NC(=O)[C@H](CCC(N)=O)NC(=O)[C@H](CCC(=O)O)NC(C)=O)CCCCCCC=CCCC[C@@](C)(C(=O)N[C@@H](CC(C)C)C(=O)N[C@@H](CC(C)C)C(=O)N[C@@H](Cc2c[nH]cn2)C(=O)N[C@@H](CC(N)=O)C(=O)N[C@H](C(N)=O)C(C)C)NC(=O)[C@H](CC(=O)O)NC(=O)[C@H](CO)NC(=O)[C@H](CCCCN)NC(=O)[C@H](CCCNC(=N)N)NC1=O [Peptide 3e] (Ac-EQSL[R8]FIRKSD[S5]LLHNV-NH2; staple 5-12) | 17.5 | 71 ± 34
